For experiment [1], the target named is T1, Recombinant ADAMTS5 protein containing the metalloproteinase, disintegrin and thrombospondin domains … (human, UniProt Q9UNA0 262-622).
T1 construct: Bought from R&D Systems
T1 sequence: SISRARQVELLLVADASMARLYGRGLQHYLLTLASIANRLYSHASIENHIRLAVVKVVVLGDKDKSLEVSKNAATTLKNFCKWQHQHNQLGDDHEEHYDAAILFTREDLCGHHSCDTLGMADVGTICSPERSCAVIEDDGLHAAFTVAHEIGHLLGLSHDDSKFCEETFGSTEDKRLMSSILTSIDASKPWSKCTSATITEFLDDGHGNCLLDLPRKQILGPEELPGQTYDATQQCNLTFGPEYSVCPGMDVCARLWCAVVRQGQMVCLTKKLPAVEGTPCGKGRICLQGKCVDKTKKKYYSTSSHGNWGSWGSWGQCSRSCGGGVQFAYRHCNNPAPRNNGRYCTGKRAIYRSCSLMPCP
The experiment in a line: SPR (BIAcore 3000), ADAMTS amine-coupled on CM5 chip, IgG1 injected. How it is done:
(§1) Surface plasma resonance interaction (BIAcore) analysis Recombinant ADAMTS species were covalently immobilized via amine coupling on CM5 sensor chip flow chambers (GE Healthcare Life Sciences, Buckinghamshire, UK). […] The KD (the affinity) was calculated from the determined Kₐ and Kd values.
In general terms: In SPR one partner is held on a chip, and binding of the other changes the refractive index at the surface.

In experiment [2] the target is T2, recombinant human ADAMTS4 (residues Phe213-Cys685, C-terminal Strep-tag II) (human, UniProt O75173 213-685).
T2 construct: Made in HEK293T cells; metalloproteinase, disintegrin, thrombospondin and cysteine-rich domains; also called recombinant ADAMTS4; not shown: Strep-tag II at the C-terminal
T2 sequence: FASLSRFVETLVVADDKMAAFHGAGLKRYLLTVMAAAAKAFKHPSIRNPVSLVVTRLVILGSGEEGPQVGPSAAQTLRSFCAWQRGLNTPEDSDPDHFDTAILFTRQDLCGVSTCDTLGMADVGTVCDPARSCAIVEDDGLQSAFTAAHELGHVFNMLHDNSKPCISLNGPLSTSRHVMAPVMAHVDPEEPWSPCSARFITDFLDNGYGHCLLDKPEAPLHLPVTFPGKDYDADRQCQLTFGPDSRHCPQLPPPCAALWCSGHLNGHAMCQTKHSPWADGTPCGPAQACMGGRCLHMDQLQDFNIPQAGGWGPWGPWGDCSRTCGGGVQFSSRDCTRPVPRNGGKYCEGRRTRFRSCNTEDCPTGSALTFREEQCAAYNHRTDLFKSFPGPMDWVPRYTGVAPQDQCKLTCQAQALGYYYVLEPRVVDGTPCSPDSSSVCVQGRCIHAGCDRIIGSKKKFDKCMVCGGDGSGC
Described as above. How it is done:
as §1

Experiment [3] addresses T3, peptide #39 of the human ADAMTS4 peptide array (YCEGRRTRFRSC) (human).
T3 construct: Immobilized on a peptide array
T3 peptide: YCEGRRTRFRSC
The experiment in a line: peptide array, HRP-labeled antibody. The source says:
(§2) To be specific, as shown in the following Table, a peptide array consisting of peptides having the residue number of 12 amino acid residues and an offset of 3 amino acid residues was produced relative to a sequence covering the thrombospondin domain of human ADAMTS4.

The target of experiment [4] is T4, peptide #36 of the human ADAMTS4 peptide array (GGKYCEGRRTRF) (human).
T4 construct: Immobilized on a peptide array
T4 peptide: GGKYCEGRRTRF
Nature of the experiment: peptide array, HRP-labeled antibody.
Source text: as §2

Experiment [5] concerns the target T5, peptide #38 of the human ADAMTS4 peptide array (KYCEGRRTRFRS) (human).
T5 construct: Immobilized on a peptide array
T5 peptide: KYCEGRRTRFRS
Nature of the experiment: peptide array, HRP-labeled antibody.
Source text: as §2

The target of experiment [6] is T6, peptide #37 of the human ADAMTS4 peptide array (GKYCEGRRTRFR) (human).
T6 construct: Immobilized on a peptide array
T6 peptide: GKYCEGRRTRFR
Nature of the experiment: peptide array, HRP-labeled antibody.
Source text: as §2

This is an account of results in patent US20160304622A1 (GENEFRONTIER, published 2016).

B1: human anti-ADAMTS antibody (IgG1; clone 237-53) (antibody, V domains shown)
VH: QVQLVQSGAEVKKPGSSVKVSCKASGGTFSSFAISWVRQAPGQGLEWMGGIFPIFGQANYAQKFQGRVTITADESTSTAYMELSSLRSEDTAVYYCARFSDWWEWQMDYWGQGTLVTVSS
VL: DIVMTQSPDSLAVSLGERATINCRSSQSILYSSNNNYLAWYQQKPGQPPKLLIHTASARESGVPDRFSGSGSGTDFTLTISSLQAEDVAVYYCQQYYSVSITFGQGTKVEIKR
notes: HRP-labeled in the peptide array
The Kd is a measure of binding affinity in units of concentration. Take B1: the results for the dissociation constant Kd in experiment [1] and in experiment [2] were 1.46 nM and 11.7 nM, respectively. Besides, the binding result in experiment [3], in experiment [4], in experiment [5] and in experiment [6] was “binds” throughout.
